Measurements published in article PMC9056652.
Substitutions are numbered along the chain they refer to.

Assays:
[1] = molecular target: T1, wt-Obe (tag-free obelin) (UniProt Q27709 1-195); assay: DRaCALA
T1 sequence: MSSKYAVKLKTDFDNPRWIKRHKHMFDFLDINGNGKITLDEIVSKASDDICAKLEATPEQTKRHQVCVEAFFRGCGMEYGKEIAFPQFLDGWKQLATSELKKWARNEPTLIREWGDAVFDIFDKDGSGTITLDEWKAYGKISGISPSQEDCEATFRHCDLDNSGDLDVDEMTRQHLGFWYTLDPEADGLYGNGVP

[2] = molecular target: T1, wt-Obe (tag-free obelin); assay: solid-phase bioluminescent assay

B1: O79 (structured_RNA)
RNA: GGGAGACAAGAAUAAACGCUCAAUGUGAAGUCGCAUUUAAUUGCUGGCGCCGUUUACUUGCUCUUCGACAGGAGGCUCACAACAGGC
modifications: 2'-F on all C and U
[1]
  Kd: 690 nM

B2: O4t (structured_RNA)
RNA: GGGAGACAAGAAUAAACGCUCAACUAGGCUGUGCGCGGUGCCCUAUCUUAUCCGCGCCUCUCCU
modifications: 2'-F on all C and U
[1]
  binding result: no binding

B3: O6t (structured_RNA)
RNA: GGGAGACAAGAAUAAACGCUCAAGACGUGCGCGGGAAAGACCGACGCUCUACCCCUACAAGCU
modifications: 2'-F on all C and U
[1]
  binding result: no binding

B4: O35 (structured_RNA)
RNA: GGGAGACAAGAAUAAACGCUCAAUAGGGUACGCGGACAGCGAUGGGACCGCGUUGCCAGCCCCUUCGACAGGAGGCUCACAACAGGC
modifications: 2'-F on all C and U
[1]
  binding result: no binding

B5: O5 (structured_RNA)
RNA: GGGAGACAAGAAUAAACGCUCAAGUUGUACGCGGUUGGCAAUCCGCGUUGCUUUACGGGUUCCUUCGACAGGAGGCUCACAACAGGC
modifications: 2'-F on all C and U
[2]
  binding result: binds

B6: O79t (structured_RNA)
RNA: GGGAGACAAGAAUAAACGCUCAAUGUGAAGUCGCAUUUAAUUGCUGGCGCCGUUUACUUGCUC
modifications: 2'-F on all C and U
[1]
  Kd: 720 nM

B7: O3t (structured_RNA)
RNA: B6 RNA with U36C, A40G, C50U
modifications: 2'-F on all C and U
[1]
  Kd: 1370 nM
